From the RNAGym collection of RNA variant scans (doi:10.7554/elife.80360)

B1: Hairpin Ribozyme (parent)
chain: GUCCUCUUUCACGUGCGCGUGAAAGAGAGAAGUGAACCAGAGAAACACACGUUGUGGUAUAUUACCUGGUA

Variants of: B1
Assay: self-cleavage, relative activity (ratio to wild type); higher = more cleavage; co-transcriptional
For GUCCUCUUUCACGUGCGCGUGAAAGAGAGAAGUGAACCCGACAAACACACGUUGUGGUAUAUUACCUGGUA, the self-cleavage was 0.169.
With GUCCUCUUUCACGUACGCGUGAAAGAGAGAAUUGAACCAGAGAAACACACGUUGUGGUAUAUUACCUGGUA the self-cleavage was 0.0825.
With GUCCUCUUUCACGUGCGCGUGAAAGGGAGAAGUGAACCAGAGAAACACACGUUGUGGUAUAUUACCUGGUU the self-cleavage was 0.823.
GUCCUCUUUCACGUGUGCGUGAAAGAGAGAAGUGAACCAGAGAAACACACGUUGUGCUAUAUUACCUGGUA showed a self-cleavage of 0.113.
Variant GUCCACUUUCACGUGCGCGUGAAAGAGAGAAGUGAACCAGAGAAGCACACGUUGUGGUAUAUUACCUGGUA has a self-cleavage of 0.0727.
Work on GUCCCCUUUCACGUGCGCGUGAAAGAGAGAAGUGAAACAGAGAAACACACGUUGUGGUAUAUUACCUGGUA yielded a self-cleavage of 0.178.
Variant GUCCUCUUUCACGAGCACGUGAAAGAGAGAAGUGAACCAGAGAAACACACGUUGUGGUAUAUUACCUGGUA has a self-cleavage of 1.03.
Variant GUCCUCUUGCACGUGCGCGUGAAAGAGAGAAGUGAACCAGAGAAACACAUGUUGUGGUAUAUUACCUGGUA has a self-cleavage of 0.393.
GUCCUCUUUUACGUGCGCGUGAAAGAGAGAAGUGAACCAGAGAAACACACGUUGUGGUAUAAUACCUGGUA showed a self-cleavage of 0.234.
For GUCCUCUUUCACGUGCGCGUGAAAGAGAGAAGUGAACCAGAGAAACAAACGCUGUGGUAUAUUACCUGGUA, the self-cleavage was 0.162.
In the case of GUCCUCUUUCACGUGCGCGUGAAAGAGAGAAGUGAACCAGAGAAACACACGUUGUGGUAUAUUACCGGGAA, the self-cleavage is reported as 0.214.
Variant GUCCUCUUUCACGUGCGCGUGAAAGAGGGAAGUGAACCAGAGAAACACAGGUUGUGGUAUAUUACCUGGUA has a self-cleavage of 0.467.
GUCCUCUUUCACGUGCGCGUGAAAGAGAGAAGUGAACCAGAGAAACACACGUUGAGGUAUAUUACCUGCUA gave a self-cleavage of 0.217.
GUCAUCUUUCACGUGCGCGUGAAAGAGAGAAGUGAACCCGAGAAACACACGUUGUGGUAUAUUACCUGGUA gave a self-cleavage of 0.166.
In the case of GUCCUCUUUCACGUGCGCGUAAAAGAGAGAAGUGAACCAGAGAAACACACGUUGUGGUACAUUACCUGGUA, the self-cleavage is reported as 0.956.
Work on GUCCUCUUUCACGAGCGCGUGAAAGAGAGAAGUGAACCAGAGAAACACACGUUGUGGUAUAUUACCUGGUC yielded a self-cleavage of 1.34.
GUCGUCUUUCACGUGCGCGUGAAAGAGAGAAGUGAACCAGAGAAACACACGUUGUGGGAUAUUACCUGGUA showed a self-cleavage of 0.241.
With UUCCUCUUUCACGUGCGCGUGAAAGAGAGAAGUGAACCUGAGAAACACACGUUGUGGUAUAUUACCUGGUA the self-cleavage was 0.0669.
GUCCUCUUUCACGUGCGCGUGACAGAGAGAAGUGAACCAGAGAAACACACGAUGUGGUAUAUUACCUGGUA showed a self-cleavage of 0.875.
GUCCUCUUUCACGUGCGCGUGAAAGAUAGAAGUAAACCAGAGAAACACACGUUGUGGUAUAUUACCUGGUA gave a self-cleavage of 0.282.
For GUCCUCUUUCACGUGCGCGUGAAAGAGAGAAGAGAUCCAGAGAAACACACGUUGUGGUAUAUUACCUGGUA, the self-cleavage was 0.0862.
For GUCCUUUUUCACGUGCGCGUGAAAGAGAGAAGUGAACCAGAGAAACACACGUUGUGGUAGAUUACCUGGUA, the self-cleavage was 0.502.
GUCCUCUUUCACUUGCGCGUGAAAGAGAGAAGUGAACCAGAGAAACACACGUUGUGGUAUAUUACCUGGAA gave a self-cleavage of 0.771.
GUCCUCUUUCACGUGCGCGUGAAAGCGAGAAGUGAACCAGAGAAACAGACGUUGUGGUAUAUUACCUGGUA showed a self-cleavage of 0.138.
GUCCUCUUUCACGUGCGCGUGAAAGAGAAAAGUGAACCAGAGAAACACACGUUGUGGCAUAUUACCUGGUA showed a self-cleavage of 0.202.
Work on GUCCUCUUUCACGUGCCCGUGAAAGAGAGAAGUGAGCCAGAGAAACACACGUUGUGGUAUAUUACCUGGUA yielded a self-cleavage of 0.48.
Work on GUCCACGUUCACGUGCGCGUGAAAGAGAGAAGUGAACCAGAGAAACACACGUUGUGGUAUAUUACCUGGUA yielded a self-cleavage of 0.253.
Work on GUCCUCUUUCACGUGCGCGUGAAAGAGAGAAGUGAACCAGAGAAACACACGUUGUGUUAUAUUAGCUGGUA yielded a self-cleavage of 0.134.
In the case of GUCCUCUUUCACGUGCGCGUGAACGAGAUAAGUGAACCAGAGAAACACACGUUGUGGUAUAUUACCUGGUA, the self-cleavage is reported as 0.0732.
Variant GUCCUCUUUCACGUGCGCGUGAAAGAGACAAGUGAACCAGAGAAACACACGUUGUGGUGUAUUACCUGGUA has a self-cleavage of 0.0639.
With GCCCUCUUUCACUUGCGCGUGAAAGAGAGAAGUGAACCAGAGAAACACACGUUGUGGUAUAUUACCUGGUA the self-cleavage was 0.121.
GUCCUCUUUCACGUGCGCGUGAAAGAGAGAAGUGAACCAGAGAAACACACGCUGUGGUAUACUACCUGGUA showed a self-cleavage of 0.248.
For GUCCUCUUUCACGUGCGCGUGAAUGAGAGAAGUGAACCAGAGAAACACAUGUUGUGGUAUAUUACCUGGUA, the self-cleavage was 0.307.
With GCCCUCUUUCACGUGCGCGUGAAAGAGAGAAGUGAACCAGAAAAACACACGUUGUGGUAUAUUACCUGGUA the self-cleavage was 0.0595.
With AUCCUCUUUCACGUGCGCGUGAAAGAGAGUAGUGAACCAGAGAAACACACGUUGUGGUAUAUUACCUGGUA the self-cleavage was 0.159.
Variant GUCCGCUUUCACGUGCGCGUGAAAGAGUGAAGUGAACCAGAGAAACACACGUUGUGGUAUAUUACCUGGUA has a self-cleavage of 0.242.
With GUCCUCUUUCACGUGCGCGUGCAAGAGAGAAGUGAACCAGAGAAACACACGUUGCGGUAUAUUACCUGGUA the self-cleavage was 0.247.
Variant GUCCUCUAUCACGUGCGCGUGAAAGAGAGAAGUGAACCAGAGAAACACGCGUUGUGGUAUAUUACCUGGUA has a self-cleavage of 0.366.
